Reference: paper PMC8016844, “Grb2 binding induces phosphorylation-independent activation of Shp2” (Communications Biology, 2021)

Biological target: T1, Shp2 N-terminal SH2 domain (Shp2_(NSH2)) (UniProt Q06124 6-102)
T1 construct: Shp2 (PTPN11), N-terminal SH2 domain; Atto 488 labelled in MST; uniformly 15N-labelled in the NMR titration; Perturbed residues up to Y100 are named, so the construct reaches at least residue 100; also called Shp2-NSH2 domain; source: E. coli BL21 (DE3), pET28b, purified (Talon buffers, Superdex SD75)
T1 sequence (looked up): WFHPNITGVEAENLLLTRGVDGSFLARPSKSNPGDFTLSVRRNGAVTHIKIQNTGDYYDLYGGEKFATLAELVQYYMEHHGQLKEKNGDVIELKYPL
Experiment: MST; target protein labelled with Atto 488 NHS ester, 100 nM; unlabelled ligand serially diluted; Monolith NT.115; 25 °C; 20 mM HEPES pH 7.5, 150 mM NaCl, 0.5 mM TCEP, 0.005% Tween 20
Settings: both partners purified

Kd: 422 ± 21.5 µM
B1: isolated NSH3 domain of Grb2 (Grb2_(NSH3)) (domain or fragment)
chain: MEAIAKYDFKATADDELSFKRGDILKVLNEECDQNWYKAELNGKDGFIPKNYIEMKPH
